Experimental findings from publication PMC5321526 are described below.

For orientation: stoichiometry N means the number of molecules, sites or subunits per partner or assembly.

The target of the experiment is MVV IN construct spanning the C-terminal domain (CTD), as crystallised (maedi-visna virus (MVV)). Briefly: crystal structure.

Regarding “MVV IN construct spanning the C-terminal domain (CTD), as crystallised (domain or fragment)”, the stoichiometry N worked out at 2.
